Laboratory results: article PMC6753088, “The cryo-EM structure of the acid activatable pore-forming immune effector Macrophage-expressed gene 1” (Nature Communications, 2019)
Substitutions are numbered along the chain they refer to. In names and notes the source's numbering stands.

B1: human MPEG1 (Macrophage-expressed gene 1 / Perforin-2) soluble ectodomain, wild type (domain or fragment)
chain: KSGKPSGEMDEVGVQKCKNALKLPVLEVLPGGGWDNLRNVDMGRVMELTYSNCRTTEDGQYIIPDEIFTIPQKQSNLEMNSEILESWANYQSSTSYSINTELSLFSKVNGKFSTEFQRMKTLQVKDQAITTRVQVRNLVYTVKINPTLELSSGFRKELLDISDRLENNQTRMATYLAELLVLNYGTHVTTSVDAGAALIQEDHLRASFLQDSQSSRSAVTASAGLAFQNTVNFKFEENYTSQNVLTKSYLSNRTNSRVQSIGGVPFYPGITLQAWQQGITNHLVAIDRSGLPLHFFINPNMLPDLPGPLVKKVSKTVETAVKRYYTFNTYPGCTDLNSPNFNFQANTDDGSCEGKMTNFSFGGVYQECTQLSGNRDVLLCQKLEQKNPLTGDFSCPSGYSPVHLLSQIHEEGYNHLECHRKCTLLVFCKTVCEDVFQVAKAEFRAFWCVASSQVPENSGLLFGGLFSSKSINPMTNAQSCPAGYFPLRLFENLKVCVSQDYELGSRFAVPFGGFFSCTVGNPLVDPAISRDLGAPSLKKCPGGFSQHPALISDGCQVSYCVKSGLFTGGSLPPARLPPFTRPPLMSQAATNTVIVTNSENARSWIKDSQTHQWRLGEPIELRRAMNVIHGDGGGLS
B2: human MPEG1 soluble ectodomain, L425K mutant (domain or fragment)
chain: B1 chain with L425K
modifications: a glycan moiety attached to TMH-2 (residue not given)

Biological target: the molecule itself
Experiment: cryo-EM structure; soluble MPEG1 ectodomain, 2.0-2.5 mg/mL, 20 mM Tris-HCl pH 7.2, 0.3 M NaCl; single particle analysis; two hexadecameric rings stacked head to head (D16, C16 or C1 imposed)

Protein | stoichiometry N
B1 | 16
B2 | 16
